Measured values as given in the supplement of paper PMC10126150.
± gives the standard deviation of the averaged measurements.

System: ATP
Assay: switch fluorescence ratio, 500 uM ATP over buffer (Cy3 cluster intensity, sum of 5 cycles each) (fold (ratio)); higher = stronger signal-on switching upon ATP binding; sequences stand for … in TCGTCGGCAGCGTCAGATGTGTATAAGAGACAGTTTTTTTTTTTTTTTTTTTTTTTTT…TC
Conditions: aptamer strand: ATP DNA aptamer (quencher-CACCTGGGGGAGTATTGCGGAGGAAGG + anchor), 100 nM annealed; ATP concentration: 500 uM
Method in brief: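 Clusters carrying Cy3-labelled switching strands on a modified Illumina MiSeq flow-cell were annealed to 100 nM quencher-labelled ATP aptamer and imaged in selection buffer. They were imaged again after 15 min with 500 uM ATP at 22 °C, over five buffer/ATP cycles with NaOH stripping and re-annealing in between. For each cluster, the fluorescence ratio is the summed Cy3 intensity of the target cycles divided by that of the buffer cycles, averaged per switch-domain sequence. Clusters outside 100-1000 RFU were left out.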
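Note: ATP exposure 15 min at 22 °C before imaging.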

| Sequence | switch fluorescence ratio |
| --- | --- |
| GGTGGGTATA | 1 ± 0.037 |
| GGTGGGTGGG | 0.999 ± 0.042 |
| GGTGGTACGT | 0.999 ± 0.022 |
| GGTGGTACTG | 1.01 ± 0.037 |
| GGTGGTAGGC | 1 ± 0.046 |
| GGTGGTCGGG | 0.982 ± 0.0053 |
| GGTGGTGACT | 1.01 ± 0.036 |
| GGTGGTGGGC | 0.954 ± 0.01 |
| GGTGGTGTCG | 1 ± 0.017 |
| GGTGGTGTTT | 1 ± 0.026 |
| GGTGGTTGGA | 1.02 ± 0.04 |
| GGTGTAAGAA | 1.002 ± 0.0085 |
| GGTGTACGGA | 0.972 ± 0.043 |
| GGTGTATTAG | 1 ± 0.029 |
| GGTGTATTTG | 0.981 ± 0.013 |
| GGTGTCTTCA | 1.06 ± 0.076 |
| GGTGTGAATT | 1.02 ± 0.034 |
| GGTGTGAGGT | 0.9973 ± 0.0093 |
| GGTGTGAGTA | 1.01 ± 0.016 |
| GGTGTGATTG | 0.977 ± 0.04 |
| GGTGTGCACC | 1 ± 0.025 |
| GGTGTGGGCG | 0.983 ± 0.079 |

| Sequence | switch fluorescence ratio |
| --- | --- |
| GGTGTGTCTC | 1.03 ± 0.065 |
| GGTGTGTTGC | 0.998 ± 0.06 |
| GGTGTTAAAC | 1.01 ± 0.035 |
| GGTGTTATGT | 1.01 ± 0.016 |
| GGTGTTCTGA | 1.01 ± 0.023 |
| GGTGTTGGCT | 1.02 ± 0.059 |
| GGTGTTGGTG | 1.01 ± 0.025 |
| GGTGTTTGCT | 0.965 ± 0.022 |
| GGTTAAGTGT | 1.01 ± 0.021 |
| GGTTACCTTC | 1.356 ± 0.0068 |
| GGTTACTGGT | 1.01 ± 0.03 |
| GGTTAGATAC | 1.19 ± 0.025 |
| GGTTAGATGT | 0.9766 ± 0.0075 |
| GGTTAGGGGA | 0.994 ± 0.036 |
| GGTTATAGGA | 0.99 ± 0.036 |
| GGTTATAGTC | 0.966 ± 0.02 |
| GGTTATATAG | 1.01 ± 0.016 |
| GGTTATCGTA | 1.02 ± 0.011 |
| GGTTATGAGG | 0.994 ± 0.031 |
| GGTTATGCGG | 1.01 ± 0.046 |
| GGTTATTGCT | 1.02 ± 0.0033 |
| GGTTATTTGT | 0.992 ± 0.041 |

| Sequence | switch fluorescence ratio |
| --- | --- |
| GGTTATTTTG | 1.01 ± 0.015 |
| GGTTCAATTG | 1.03 ± 0.089 |
| GGTTCAGATG | 1.0081 ± 0.00081 |
| GGTTCAGCTT | 0.981 ± 0.013 |
| GGTTCAGGCT | 0.977 ± 0.025 |
| GGTTCCGTGG | 0.994 ± 0.023 |
| GGTTGAGGGG | 0.985 ± 0.034 |
| GGTTGAGGTG | 1.01 ± 0.039 |
| GGTTGATAAT | 1.002 ± 0.0043 |
| GGTTGCGGCA | 1.01 ± 0.041 |
| GGTTGCTAGG | 0.9916 ± 0.0037 |
| GGTTGGAATT | 1.01 ± 0.025 |
| GGTTGGATTT | 0.978 ± 0.017 |
| GGTTGGGATC | 0.9513 ± 0.0082 |
| GGTTGGGGGT | 1.01 ± 0.045 |
| GGTTGGGTCC | 0.9701 ± 0.0018 |
| GGTTGGTGGT | 1.028 ± 0.0064 |
| GGTTGGTGTG | 0.967 ± 0.023 |
| GGTTGGTTTC | 1.01 ± 0.055 |
| GGTTGGTTTG | 0.99 ± 0.06 |
| GGTTGGTTTT | 0.992 ± 0.024 |
| GGTTGTCCAG | 0.9966 ± 0.0014 |

| Sequence | switch fluorescence ratio |
| --- | --- |
| GGTTGTCTTA | 0.9726 ± 0.0018 |
| GGTTGTTTTG | 1.017 ± 0.0097 |
| GGTTTAAACT | 0.987 ± 0.016 |
| GGTTTAAAGG | 0.996 ± 0.015 |
| GGTTTAAATT | 1 ± 0.018 |
| GGTTTAAGAT | 1.0263 ± 0.00079 |
| GGTTTAATTT | 0.993 ± 0.026 |
| GGTTTACGGA | 0.964 ± 0.01 |
| GGTTTAGATG | 1.02 ± 0.015 |
| GGTTTAGGGA | 0.996 ± 0.039 |
| GGTTTATATG | 1.035 ± 0.0011 |
| GGTTTATTGT | 0.993 ± 0.056 |
| GGTTTCAATA | 1.0088 ± 0.00023 |
| GGTTTCATAT | 0.996 ± 0.026 |
| GGTTTCCCT | 0.973 ± 0.019 |
| GGTTTCCTGG | 0.971 ± 0.031 |
| GGTTTCGCGA | 1.07 ± 0.053 |
| GGTTTCGGCA | 1.01 ± 0.0045 |
| GGTTTCTCTT | 1.003 ± 0.0099 |
